Results from PMC6773690, “Scribble co-operatively binds multiple α1D-adrenergic receptor C-terminal PDZ ligands” (Scientific Reports, 2019).
Ends that are not written are not given here. BG‑782 = not defined here

Legend:
[1] = biological target: biotin-labeled peptide containing the last 20 amino acids of the α1D-adrenergic receptor C-terminus (human) (UniProt P25100); assay: BLI; Octet Red 96; 50 nM biotin-labeled α1D-CT peptide immobilised on streptavidin probes, then biocytin; serial dilutions of purified PDZ proteins as analytes until steady state; 20 mM Tris-HCl pH 8.0, 200 mM NaCl, 0.1% bovine serum albumin
[2] = biological target: T1, calcium/calmodulin-dependent serine protein kinase (CASK) PDZ domain (UniProt O14936 489-564); assay: as above; conditions: both partners purified
T1 construct: calcium/calmodulin-dependent serine protein kinase (CASK), PDZ domain; The methods elute GST proteins with glutathione; TEV cleavage is told only for crystallography; source: E. coli Rosetta (DE3), purified (glutathione agarose)
T1 sequence (looked up): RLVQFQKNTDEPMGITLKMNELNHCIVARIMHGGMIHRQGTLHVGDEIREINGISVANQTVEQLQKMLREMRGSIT

GST-SCRIB PDZ domain 4 = GST-SCRIB PDZ domain 4 (UniProt Q14160 992-1203); assay: as above; conditions: both partners purified
GST-SCRIB PDZ domain 1 = biological target: T2, GST-SCRIB PDZ domain 1 (UniProt Q14160 728-815); assay: as above; conditions: both partners purified
T2 construct: scribble (SCRIB), PDZ domain 1 alone; also called SCRIB PDZ1; PDZ1; source: E. coli Rosetta (DE3), purified (glutathione agarose); not shown: GST, N-terminal, kept
T2 sequence (Q14160 728-815): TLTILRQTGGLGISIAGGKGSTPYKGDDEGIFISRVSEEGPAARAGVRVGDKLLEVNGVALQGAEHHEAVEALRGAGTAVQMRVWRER

[3] = biological target: T3, α1-syntrophin (SNTA) PDZ domain (UniProt Q13424 87-170); assay: as above; conditions: both partners purified
T3 construct: α1-syntrophin (SNTA), PDZ domain; The methods elute GST proteins with glutathione; TEV cleavage is told only for crystallography; source: E. coli Rosetta (DE3), purified (glutathione agarose)
T3 sequence (looked up): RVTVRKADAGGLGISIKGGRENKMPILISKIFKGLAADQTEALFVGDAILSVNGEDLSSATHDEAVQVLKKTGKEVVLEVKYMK

GST-SCRIB PDZ domain 3 = biological target: T4, GST-SCRIB PDZ domain 3 (UniProt Q14160 1004-1093); assay: as above; conditions: both partners purified
T4 construct: scribble (SCRIB), PDZ domain 3 alone; also called SCRIB PDZ3; PDZ3; source: E. coli Rosetta (DE3), purified (glutathione agarose); not shown: GST, N-terminal, kept
T4 sequence (looked up): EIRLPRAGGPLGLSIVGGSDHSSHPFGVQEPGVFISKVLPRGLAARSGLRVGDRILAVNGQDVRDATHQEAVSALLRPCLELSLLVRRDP

GST-SCRIB PDZ domain 2 = biological target: T5, GST-SCRIB PDZ domain 2 (UniProt Q14160 862-950); assay: as above; conditions: both partners purified
T5 construct: scribble (SCRIB), PDZ domain 2 alone; also called SCRIB PDZ2; PDZ2; source: E. coli Rosetta (DE3), purified (glutathione agarose); not shown: GST, N-terminal, kept
T5 sequence (looked up): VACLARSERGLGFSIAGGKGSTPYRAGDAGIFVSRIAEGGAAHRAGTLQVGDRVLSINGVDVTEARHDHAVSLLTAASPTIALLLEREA

[4] = biological target: GST-SCRIB containing all 4 PDZ domains (WT); assay: BLI; reverse BLI: GST-SCRIB immobilised on anti-GST probes, serial dilutions of biotin-labeled α1D-CT as analyte; 20 mM Tris-HCl pH 8.0, 200 mM NaCl, 0.1% bovine serum albumin
[5] = biological target: GST-SCRIB ΔPDZ4 (C-terminal truncation mutant missing PDZ4); assay: pull-down; SNAP GST-pulldown: 1 μM GST-tagged SCRIB proteins on glutathione agarose beads with serial dilutions of BG-782-labeled SNAP-α1D-CT, 1 h at 4 °C; washes 20 mM Tris-HCl pH 8.0, 200 mM NaCl, 0.05% NP-40; PAGE NIR
[6] = biological target: GST-SCRIB ΔPDZ34 (C-terminal truncation mutant missing PDZ3 and PDZ4); assay: as above

Molecule: GST-SCRIB H793A (PDZ1 mutation in SCRIB with all 4 PDZ domains) (domain or fragment)
- Kd [1]: 7340 nM

Molecule: GST-SCRIB ΔPDZ4 (C-terminal truncation mutant missing PDZ4) (domain or fragment)
- Kd [1]: 140 nM

Molecule: GST-SCRIB H1170A (PDZ4 mutation in SCRIB with all 4 PDZ domains) (domain or fragment)
- Kd [1]: 320 nM

Molecule: GST-SCRIB ΔPDZ34 (C-terminal truncation mutant missing PDZ3 and PDZ4) (domain or fragment)
- Kd [1]: 160 nM

Molecule: human discs large MAGUK scaffold protein 1 (DLG1) PDZ domains (domain or fragment)
- Kd [1]: 790 nM

Molecule: GST-SCRIB containing all 4 PDZ domains (WT) (domain or fragment)
- Kd [1]: 70 nM

Molecule: SCRIB PDZ3 and PDZ4 (PDZ34) (domain or fragment)
- Kd [1]: 340 nM

B1: biotin-labeled peptide containing the last 20 amino acids of the α1D-adrenergic receptor C-terminus (peptide, UniProt P25100 553-572, looked up)
peptide: GATCQAYELADYSNLRETDI
modifications: also: biotin label (position not given here)
notes: α1D-adrenergic receptor, distal (last) 20 amino acids of the C-terminus; also called α1D-CT; α1D-AR C-terminal PDZ ligand; source: synthetic peptide, bought: BioMatik
- Kd [2]: 1150 nM
- Kd (GST-SCRIB PDZ domain 4): 1140 nM
- Kd (GST-SCRIB PDZ domain 1): 1930 nM
- Kd [3]: 560 nM
- Kd (GST-SCRIB PDZ domain 3): 44200 nM
- Kd (GST-SCRIB PDZ domain 2): 14900 nM
- Kd [4]: 76 nM

Molecule: {BG‑782-SNAP tag}-QAYELADYSNLRETDI (not fully specified; reading uncertain)
- maximal binding response, % of SCRIB WT (% of SCRIB WT) [5]: 48
- maximal binding response, % of SCRIB WT (% of SCRIB WT) [6]: 34
